According to the DeepSol protein solubility set:

Assay: soluble on expression in E. coli; label from the status in PepcDB or PDB records

**Q.** With “MGLIEDKALVEAALFVAGRPLSLKELSKALGIKSLDYLEKLIELIASEYAERKSAIEIVKVAGDKWVMQVKQEYSQRVIPLMPKPELSTGELKTLALIAYLQPVEQSKIVKLRGSQAYEHIRKLLEMGLIYAEPYERTRLLGTTEKFAELYGFPENDPMLIKETFKKVIHAEYSDLMKKIEESEKKKE” as the sequence, how does the “soluble on expression in E. coli” value read?
**A.** soluble

**Q.** For “MESIKLSQKAEEEIVNAARMAALSNLTEKSQNLITLEDIAIYFGRHYQTVAKIISKLPNFPKPVTPVTVDQQNSRPRYIAGEVVRWGRINAKPY”, which “soluble on expression in E. coli” value is on record?
**A.** not soluble

**Q.** With “MSLHFLYYCSEPTLDVKIAFCQGFDKQVDVSYIAKHYNMSKSKVDNQFYSVEVGDSTFTVLKRYQNLKPIGSGAQGIVCAAYDAVLDRNVAIKKLSRPFQNQTHAKRAYRELVLMKCVNHKNIISLLNVFTPQKTLEEFQDVYLVMELMDANLCQVIQMELDHERMSYLLYQMLCGIKHLHSAGIIHRDLKPSNIVVKSDCTLKILDFGLARTAGTSFMMTPYVVTRYYRAPEVILGMGYKENVDIWSVGCIMGEMVRHKILFPGRDYIDQWNKVIEQLGTPCPEFMKKLQPTVRNYVENRPKYAGLTFPKLFPDSLFPADSEHNKLKASQARDLLSKMLVIDPAKRISVDDALQHPYINVWYDPAEVEAPPPQIYDKQLDEREHTIEEWKELIYKEVMNSEEKTKNGVVKGQPSPSGAAVNS” as the sequence, how does the “soluble on expression in E. coli” value read?
**A.** soluble

**Q.** For “KNNINKTRMNDLNREETRLKTFTDWPLDWLDKRQLAQTGMYFTHAGDKVKCFFCGVEIGSWEQEDQPVPEHQRWSPNCPLLRRRTTNNVPINAEALDRILPPISYDICGANDSTLE”, which “soluble on expression in E. coli” value is on record?
**A.** soluble

**Q.** With “MKQEIIIAGFGGQGVLSMGKILAYSGLMEDKEVTWMPAYGPEQRGGTANVTVIVSDERISSPILSQYDTAIILNQPSLEKFEGKIKPGGILIYDGYGIIEPPTRKDIQIYRIDAMDAANEKGMAKTFNMIVLGGLLKLRPVVSIESVIKALRKTLPERHHHLIPMNEEAIRIGMEIIK” as the sequence, how does the “soluble on expression in E. coli” value read?
**A.** not soluble

**Q.** With “MWNNVTTIKIQFHRIEQLGSVQLDDKNRICKFTSFDGQLELQGRHGRCSVDIESPEFVRFVQFLVNKTEKSNEPIDQRRVFGKFRALEHGVLDVTTYRNRFHGVVARNMILLDNLSIDLSIRMIFALSGKMETNFLSEVEKHGIVRLDNQNRIIEYVANDGKMKLKGQHDGRKDHGTQATQDPV” as the sequence, how does the “soluble on expression in E. coli” value read?
**A.** not soluble

**Q.** Which “soluble on expression in E. coli” value does the source give for “GSHMAPDCSQPLDVILLLDGSSSFPASYFDEMKSFAKAFISKANIGPRLTQVSVLQYGSITTIDVPWNVVPEKAHLLSLVDVMQREGGPSQIGDALGFAVRYLTSEMHGARPGASKAVVILVTDVSVDSVDAAADAARSNRVTVFPIGIGDRYDAAQLRILAGPAGDSNVVKLQRIEDLPTMVTLGNSFLHKLCSG” here?
**A.** soluble

**Q.** Which “soluble on expression in E. coli” value does the source give for “MAQVLRGTVTDFPGFDERADAETLRKAMKGLGTDEESILTLLTSRSNAQRQEISAAFKTLFGRDLLDDLKSELTGKFEKLIVALMKPSRLYDAYELKHALKGAGTNEKVLTEIIASRTPEELRAIKQVYEEEYGSSLEDDVVGDTSGYYQRMLVVLLQANRDPDAGIDEAQVEQDAQALFQAGELKWGTDEEKFITIFGTRSVSHLRKVFDKYMTISGFQIEETIDRETSGNLEQLLLAVVKSIRSIPAYLAETLYYAMKGAGTDDHTLIRVMVSRSEIDLFNIRKEFRKNFATSLYSMIKGDTSGDYKKALLLLCGEDD” here?
**A.** soluble

**Q.** For “MGSDKIHHHHHHMRTVYAIVVNYNNFDDTAECIDSLLNQTYPCRVVVVDNGSEREVIEKLRRKYPQVEMLELGENRGYAGGCNAGIRAVIDKADYVLISNNDVVFERDAVERMVSEMEEDETIAACQPVVKYYGDERIWSAGTRIFLGYPVLHLKNKMVEVEISFDSPFGLVGCAMLIRSSALKDVGFFDEELFMMHEETEWCIRARKKGYRLAVCKAVVRHKVSASLGLFSPHYLYYTARNWLIVARRAGKAMFFYALITEPLRVLYYLVRLKRKGDIIQYLKGVVHGILSRKGRRC”, which “soluble on expression in E. coli” value is on record?
**A.** not soluble

**Q.** Which “soluble on expression in E. coli” value does the source give for “MGDLKDGTYKLEEKNEKNGYRAVFEMTVKDGKITESKYDNINADGKSKTEDTKYEESMKAKSGVGPKEYIKQLNDSFVKAQSASGVEVVTGATHSSESFQNYAQQLIQAAQAGNTDTIEIDNGATLKDGTYSLKEKNDSNGYHTTFSMTVKDGKVTESNYDNVNADGKSKKDDTEYESKMKDVAGVGPKEYIETLNKEFVKAMGEEDGSPAGVEVVTGATHSTHSFINYAQQLVNAAEKGDTTEIVVDNIVTKLEHHHHHH” here?
**A.** soluble

**Q.** With “SERGDQPKRTRNENIFNCLYKNPEATFKLICFPWMGGGSTHFAKWGQDTHDLLEVHSLRLPGRESRVEEPLENDISQLVDEVVCALQPVIQDKPFAFFGHSMGSYIAFRTALGLKENNQPEPLHLFLSSATPVHSKAWHRIPKDDELSEEQISHYLMEFGGTPKHFAEAKEFVKQCSPIIRADLNIVRSCTSNVPSKAVLSCDLTCFVGSEDIAKDMEAWKDVTSGNAKIYQLPGGHFYLLDPANEKLIKNYIIKCLEVSSISNF” as the sequence, how does the “soluble on expression in E. coli” value read?
**A.** soluble

**Q.** For “MGSDKIHHHHHHMTLDLKQEKGREIFFRLAEKADVIIENFVPGVVKKLGVDYEAVKKVKPDIIYCHVSGFGQDGPYRDRPAFDQLIQGEAGIISYTGTRETPCKINVPITDLLASMYGAYAVLAALLRREKTGEGMEIDISLFDCAVTMMLNLMNMAIVEGMKDEELRMGTKYFLATPYEPYPAGDGKLVNVVVATEWHWKEFCKAVGLEELLDDPRFATNQQRLKHREQLERIIIEKFREKPRDDWIEILLKAGVPCGAVNTIQEVIEHPQTKHRKTVVEVDYPELGKIKLFNNPVKFSGFEVEVRRPPKLGEHTEEILKSIGLSEEEIADLRA”, which “soluble on expression in E. coli” value is on record?
**A.** not soluble

**Q.** Which “soluble on expression in E. coli” value does the source give for “MLDLIQTRRDLHQIPEIGLEEFKTQAYLLDVIEKLTTGKDFVQIRTWRTGILVYLQGSQPERTIGWRTDIDGLPIVEQTGLPFASQHQGRMHACVHDFHMTIALGCLERALEEQPKNNLLFLFQPAEENEAGGMLMYEDGAFGDWLPDQFYGLHVRPDLKVGQIATNTHTLFAGTCEVKIRFKGKGGHAAFPHEANDALVAASYFVTQVQSVVSRNVNPIEGAVVTFGVFQAGTTNNVITDTAFLHGTIRALTQDMSLLVQKRVKTVAEGVAAAFDMEVEVELKQGGYLPVENNPALARELMDFFDEKDGIELIDIEPAMTGEDFGYLLSKVDGVMFWLGIDSPYALHHPQMSPKEEVLAIGVAAVSSFLKKKAAE” here?
**A.** soluble

**Q.** Which “soluble on expression in E. coli” value does the source give for “MQATIYDLDGNTDGEVDLPDVFETPVRSDLIGKAVRAAQANRKQDYGSDEYAGLRTPAESFGSGRGQAHVPKLDGRARRVPQAVKGRSAHPPKTEKDRSLDLNDKERQLAVRSALAATADADLVADRGHEFDRDEVPVVVSDDFEDLVKTQEVVSLLEALDVHADIDRADETKIKAGQGSARGRKYRRPASILFVTSDEPSTAARNLAGADVATASEVNTEDLAPGGAPGRLTVFTESALAEVAER” here?
**A.** soluble

**Q.** For “MPSWREKHEKIVQSKILVIGAGGIGCELLKNLAVTGFRKVHVIDLDTIDISNLNRQFLFRKEHVSSSKAATATQVVKQFCPQIELTFDHDSIFEKKYNMEFFQAYDIVLNALDNRAARNYVNRMCHAANRPLIDSGSGGYFGQVSVIMRGKTECYECVDKPVQQTTYPGCTIRNTPSEHIHCTVWAKHVFNQLFGEVDIDDDVSPDMDAVDPDNTEAVTTEKEKEAMKEEPAPVGTRQWAESVDYDAAKVFDKLFLHDIEYLCKMEHLWKQRKRPSPLEFHTASSTGGEPQSLCDAQRDDTSIWTLSTCAKVFSTCIQELLEQIRAEPDVKLAFDKDHAIIMSFVAACANIRAKIFGIPMKSQFDIKAMAGNIIPAIASTNAIVAGIIVTEAVRVIEGSTVICNSSIATTQSNPRGRVRFYGFFN”, which “soluble on expression in E. coli” value is on record?
**A.** not soluble

**Q.** Which “soluble on expression in E. coli” value does the source give for “MDWSHYRFRSLWALPAPPARVYAALERVEDYPRWWPQVREVTRLDEDCGVIRIRSLLPYDMTFTARDVRHDTAAGILEITMTGDIDGWARWTVTAGGPGTLARYDQEVDVRKPLLRRFAVPGRPVFRANHALMMRAGQRGLLAHLDGLEHHHHHH” here?
**A.** not soluble

**Q.** Which “soluble on expression in E. coli” value does the source give for “MGSSHHHHHHSSGRENLYFQGHMHALSPLALAALIVATAPAFADEAKKPGTVFKDCKDCPEMVVLPAGSFTMGTPDDEVGRQPDEGPLHDVTFAKPFAISRYQVTAGELDAYLKATGVKLADGDTRPGRECIAGKPRYQQGPRQPAVCVDYNDVKNYAAWLSKKTGKRYRMLSEAEREYGARAGSAGPFPFPFDEGKEYSIAKHANTYGASDGYNFTSPVGSFPPNAFGVYDMHGNVYEWVADCWHDHYNGAPSDGSAWMEEKCELVQIRGNDWGEPPIFSRSGNRNNAAPSDRGDWIGFRVAREL” here?
**A.** soluble

**Q.** With “KEAMRMLMREELEKVLKTLSPREAMVLRMRYGLLDGKPKTLEEVGQYFNVTRERIRQIEVKALRKLRHPSRSKYLKSLLSLMDENEG” as the sequence, how does the “soluble on expression in E. coli” value read?
**A.** soluble

**Q.** With “MPLSKRRAAGRINGLKGPPAKKRKEIERHEALLMHPLAYTAEQYEQVAEESKFYKNCFETTAAENVELLKSNDQLKKELELLKNQQGNQLKVDMKFKSQIESTRQSNMTLLREREIWQNRYYDVLAEKLALSARVKSMMGDIVESVEVPNDSNGNTWELREDLEIDRSARRKTEEEPKAQKMNSTRGSLPRNQCSTRSNNQTPNEMLLKMAIGLDTTSVN” as the sequence, how does the “soluble on expression in E. coli” value read?
**A.** not soluble

**Q.** With “GPGSMVDVIIYTRPGCPYCARAKALLARKGAEFNEIDASATPELRAEMQERSGRNTFPQIFIGSVHVGGCDDLYALEDEGKLDSLLKTGKLI” as the sequence, how does the “soluble on expression in E. coli” value read?
**A.** soluble

**Q.** For “MDPARECEGKGACELKSNKRFADKIMPHLLNLYGSSAKANDFDMYAPNASFEDPLTHAQGVKQIKSAFYSLPKVFGESKIVEYHIQESETSPGKKEILIDNKQHYKIMGRNIDMISLIKLYVEDGKIVRHEDWWDKKPLRNRDTVSFPLVGRVMEMGRRGLMLATHAMMGFGKDPDSQ”, which “soluble on expression in E. coli” value is on record?
**A.** soluble

**Q.** For “MSHRPIAIFDFDGTLTRCDSLLPFLRQAQPVILFWLRLPFYLAMWMCYKLRLAPADRTKAAILSTVLKGKREVECRAMGQRFVPAIESILRPEALRCLEWHRSEGHRLVLLTASLLPCVEPWAEKTGFHTVIATLPEIKSGILTGRFEGNNCKGKEKIHRLDRALPHWRDSISYGYGDSPSDRPLLSLCTHSYYRRFPAL”, which “soluble on expression in E. coli” value is on record?
**A.** not soluble

**Q.** For “MTEVRRRGRPGQAEPVAQKGAQALERGIAILQYLEKSGGSSSVSDISLNLDLPLSTTFRLLKVLQAADFVYQDSQLGWWHIGLGVFNVGAAYIHNRDVLSVAGPFMRRLMLLSGETVNVAIRNGNEAVLIGQLECKSMVRMCAPLGSRLPLHASGAGKALLYPLAEEELMSIILQTGLQQFTPTTLVDMPTLLKDLEQARELGYTVDKEEHVVGLNCIASAIYDDVGSVVAAISISGPSSRLTEDRFVSQGELVRDTARDISTALGLKAHP”, which “soluble on expression in E. coli” value is on record?
**A.** soluble

**Q.** Which “soluble on expression in E. coli” value does the source give for “MHRRAVVLFTAALLLGLGLPRASAESRQDEPTSLITSPGYTRTTASPGPGLTLFTYQNPDDDRVVHVLRADPDAAPLTVESTAGTSGARAEKTTDMLKSTTGYAPRWPHAGLNGGFWYRQGDTLAFMGISVQEGVVQSASCSAAGRGEAALIQHGRPYIGDFTTHLAVTAPGAAPMPLDGVNRHPGWMTGCAQGSGATADRSIGGGVFADASEIIAFTSRFKAPTPVPDADARFTEDDDPGAEAVVAADGTVLSLNPNGRGGVTVPTGGRVLQGTGTGADWLRAHATPGTDLAFEERLHDERFGDDIPLDSSVDVVNGHYPLVHNAQYAYTGQNTAVDPRSAIAVDGPGRTLFVTATGKSGRNGVTLDEFARILLDLGAVDGLNMDGGGSTTLVVEQAVVNRPSDSTGERPVADSLYIGHGGYGHYADLEHHHHHH” here?
**A.** not soluble

**Q.** Which “soluble on expression in E. coli” value does the source give for “MRLIIVSGRSGSGKSTALNVLEDNGFYCIDNLPASLLPDLAQRALLHTELLQPQVAVSIDARNLPSQLQRFPELLQEVRDNHINCDVLYLDADDETLLKRFSETRRRHPLTTDTRSLAEAIGDESQLLGPIADLADLKLDTTSLNLYQLRDTIKLRLLNKPEPGTAFLVESFGFKRGMPVDADLVFDVRCLPNPYWKPELRDHSGLEPEVREYLAAQPDVEEMYQDIVGYLNKWLPRFAASNRSYVTVAIGCTGGHHRSVYLAERIGAALRDSLKNVQIRHRDLSS” here?
**A.** not soluble
